Assays:
human His6-TWEAK protein = target: T1, human His6-TWEAK protein (Homo sapiens, UniProt O43508); test: SPR binding of peptides to immobilized His6-TWEAK; conditions: for binding affinity for immobilized TWEAK: negative controls, global curve fit not attempted
T1 construct: purchased R&D Systems
T1 sequence (O43508 97-249 limits assumed): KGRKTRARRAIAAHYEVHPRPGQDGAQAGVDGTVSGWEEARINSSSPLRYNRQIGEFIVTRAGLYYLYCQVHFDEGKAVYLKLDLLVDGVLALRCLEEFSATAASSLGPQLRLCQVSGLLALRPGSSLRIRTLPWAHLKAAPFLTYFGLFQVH
From the text: SPR biosensor interaction analysis, a label-free screening approach, was used for real-time monitoring of the kinetics and affinity of peptide hits to TWEAK previously identified by cell-based screening. Peptides from pools 1 and 5 were selected both as positive (49, 30, 35 and 43) and negative hits (1 and 42). For our purposes, TWEAK was chosen as ligand, while peptides were chosen as analytes and passed across ligand-derivatized surface. Nitrilotriacetic acid-coated sensor chips (NTA chip) and a coupling approach that results in the capture of a His6-protein in a non-random orientation by the His6 epitope prior to direct free amine-based covalent coupling was used for histidine-tagged TWEAK immobilization.
After chip validation, peptides selected on our cell-based microarray screening were tested.
For each titration, a zero-analyte surface as a control was subtracted from test sensorgram as well as non-specific binding to the blank flow cell without protein; and the chip surface was regenerated in order to remove any remaining analyte. The black curves show the experimental data, while the overlaid red lines represent a global fit of the entire data set to a 1:1 Langmurian interaction model. The fitting process provided both kinetic association and dissociation rate constants (Ka and Kd), as well as equilibrium dissociation constant (KD) values indicated in Figure 6.
Binding assays were performed at 25 °C in a Biacore 3000 instrument (GE Healthcare, Uppsala, Sweden) using nitrilotriacetic (NTA) sensor chips (GE Healthcare) and HBS-EP (0.01 M HEPES pH 7.4, 0.15 M NaCl, 3 mM EDTA, 0.005 % v/v Surfactant P20) as running buffer. Histidine-tagged human TWEAK (His6-TWEAK) protein (R&D Systems, Minneapolis, MN, USA) was covalently immobilized on the sensor surface using a capture coupling method. Briefly, the NTA surface was first stabilized by injection of regeneration buffer (20 μL EDTA-containing running buffer at 20 μL/min) followed by Ni^2+ binding to the surface (40 μL of 500 μM NiCl2 in running buffer at 20 μL/min). The carboxymethyl dextran surface was then activated for primary amine coupling by injecting coupling solution (30 μL of a 1:1 N-hydroxysuccinimide (NHS)/1-ethyl-3-[3-(dimethylamino)-propyl]carbodiimide hydrochloride (EDC) mixture at 5 μL/min). His6-TWEAK protein in pH 7.4 running buffer was then injected over the surface (60 μL of 10 μg/mL His6-TWEAK at 5 μL/min). To block uncoupled primary amines on the sensor surface, ethanolamine was passed over the surface (35 μL 1M ethanolamine at 5 μL/min). Ligand surfaces were finally conditioned with a 20 µL injection of regeneration solution containing 350 mM EDTA at 20 μL/min. Immobilization levels ranged from 1500 to 7000 resonance units (RUimmob) to test different ligand densities. A blank flow cell on the chip was created by simple injection of 20 μL of regeneration buffer injected over the sensor surface.
Binding experiments using a monoclonal anti-TWEAK antibody (Abcam ref. 199405, Cambridge, UK) were run to ascertain adequate functionalization of the immobilized surface. Selected synthetic TWEAK-Fn14 inhibitory peptides at two-fold serial dilutions from 800 µM to 0 µM in running buffer were flown over the chip for 5 min at 35 µL/min. The dissociation phase was monitored for 10 min at the same flow rate and followed by a regeneration step with 10 µL of 18 mM NaOH. Specific binding responses for each channel were obtained by double referencing; subtracting non-specific binding to the blank flow cell plus an internal reference standard, namely buffer injection response. Each sample was run in triplicate. The experimental data were fitted to a 1:1 Langmuir binding model by the BIAevaluation software version 4.1 (GE Healthcare, Uppsala, Sweden).

[1] = test system: BRV5 cells, NIK expression; test: Time-course RT-PCR of NIK (MAP4K4), BRV5; format: cell-based, human; conditions: TWEAK, 6 to 24 h
From the text: The final aspect to consider in the characterization of BRV5 cells prior to the screening of peptides was to assess when the signalling pathway mediated by TWEAK-Fn14 will be at its peak of activity. To that end, we monitored the level of expression of the primary kinase NIK (MAP4K4) at different time points. It has been reported that transcriptional activation of Fn14 would be operated mainly by the NF-κB non-canonical pathway, through inducing the primary kinase NIK (MAP4K4) that phosphorylates IKKα [26]. Thus, we assessed the level of expression of NIK from 6 to 24 h after cells were treated with TWEAK in a time-course RT-PCR (Figure 2). […] From these experiments we concluded that TWEAK-Fn14 pathway is mainly activated at 6 h after treating cells, and thus we designed out experiments to check the inhibitory ability of the peptides at this specific time point.
Figure 2 NIK activation in brain metastatic cells. Metastatic cells were primed with TWEAK in a time-course RT-PCR experiment. […] Bars and error bars represent the average and standard deviation as calculated from three replicates respectively.

[2] = 25 °C, HBS-EP pH 7.4, Biacore 3000, NTA chip, 1:1 Langmuir global fit, representative of at least three independent experiments

With 1: GNGTDDNSGTSY [Peptide 1] the “binding affinity for immobilized TWEAK” value (human His6-TWEAK protein) was “negligible binding affinity”.

42: YNGHVKDD [Peptide 42] was tested, and the “binding affinity for immobilized TWEAK” value (human His6-TWEAK protein) was “negligible binding affinity”.

Molecule SWYDHMAGDSSY [Peptide 35] has a ka (human His6-TWEAK protein; [2]) of 2.06 M⁻¹ s⁻¹ and a kd (human His6-TWEAK protein; [2]) of 0.00285 s⁻¹.

B1: tumour necrosis factor-like weak inducer of apoptosis (protein, UniProt O43508 94-249, looked up)
Tumor necrosis factor ligand …: SAPKGRKTRARRAIAAHYEVHPRPGQDGAQAGVDGTVSGWEEARINSSSPLRYNRQIGEFIVTRAGLYYLYCQVHFDEGKAVYLKLDLLVDGVLALRCLEEFSATAASSLGPQLRLCQVSGLLALRPGSSLRIRTLPWAHLKAAPFLTYFGLFQVH
With B1 the NIK expression [1] was “increased in TWEAK stimulated BRV5 cells after 6 h of treatment, decreasing at 12 h and partially recovered at 24 h”.

— article PMC7866087, “Evaluation of Computationally Designed Peptides against TWEAK, a Cytokine of the Tumour Necrosis Factor Ligand Family” (International Journal of Molecular Sciences, 2021)
